From the RNAGym collection of RNA variant scans (doi:10.1073/pnas.2313332121)

B1: TPR t1 (parent)
chain: GACCAAUCUGCCCUCAGAGCUCGAGAACAUCUUCGGAUGCAGAGGAGGCAGGCUUCGGUGGCGCGAUAGCGCCAACGUCCUCAACCUCCAAUGCAUCCCACCACAUGAUGAUGCCUGAAGAGCCUUGGUUUUUUG

Variants of: B1
Assay: polymerase ribozyme fitness, log enrichment relative to wild type (log ratio); higher = more active; in vitro selection for triplet polymerase activity
In short: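 The heterodimeric triplet polymerase ribozyme's subunits were each mutagenized into PCR-built libraries and transcribed. Every library was selected once, in triplicate, by annealing with a biotinylated primer, the partner subunit and triplets, incubating frozen at −7 °C, gel-excising extended constructs, capturing on streptavidin beads and running RT-PCR. Input and output libraries were Illumina-sequenced, with genotypes kept only at ≥10 input reads and ≥1 read per output. Fitness, from inverse-variance-weighted replicate averages, is the base-2 logarithm of genotype enrichment over wild-type enrichment.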

Variant	polymerase ribozyme fitness (log ratio)
GACCUAUCUGCCCUCAGAGCUCGAGAACAUCUUCGGAUGCAGAGGAGGCAGGCUUUGGUGGCGCGAUAGCGCCAACGUCCUCAACCUCCACUGCAUCCCACCACAUGAUGAGGCCUGAAGAGCCUUGGUUUUUUG [A5U C56U A91C U112G]	-1.59
GUCCAAUCUGCCCUCUGAGCUCGAGAACAUCUUCGGAUGCAGAGGAGGCAGGCUUCGGUGGCGCGAUAGCGCCAACGUCCUCAACCUCCAAUGCAACCCACCACAUGAUGAUGCCUGAAGAGCCUUGAUUUUUUG [A2U A16U U96A G128A]	-4.83
GACCAAUCUGCCCUCAGAGCUCGAGAACAUCUUCGGAUGCAGAGGAGGCAGGAUUCGGUGGCGCGAUAGCACCAACGUCCUCAACCUCCAAUGCAUCCCACCACAUGAUGAUGCCUGAAGAGCCUUGGUUUUUUG [C53A G71A]	-0.89
GACCAAUCUGCCCUCAGAGCUCGAGAACAUCUUCGGAUGCAGAGGAGGCAGGCUUCGGUGGCGCGAUAGCGCCUACGUCUUGAACCUCCAAUGCAUCCCACCACAUGAUGAUGCCUGAAGAGCCUUGGUUUUUUG [A74U C80U C82G]	-0.403
GACCAAUCUGCCCUCUGAGCUCGAGAACAUCUUCGGAUGCAGAGGACGUAGGCUUCGGUGCCGCGAUAGCGCCAACGUCCUGAACCUCUAGUGCAUCCCACCACAUGAUGAUGCAUGAAGAGCCUUGGUUUUUUG [A16U G47C C49U G61C C82G C89U A91G C115A]	-7.61
GACCAAUCUGCCCUCAGAGCUCGAGAACAUCUUCGGAUGCAGAGGAGGCAGGCUUGGGUGGCGCGAUAGCGCCAACGUCCUCAACCUCCAAUGCAUCCCAUCACAUGAUGAUGCCUGAAGAGCCUUGGUUUUUUG [C56G C101U]	-0.0823
GACCAAUCUGCCCUCAGAGCUCGAGAACAUCUUCGGAUGCAGAGGAGGCAGGCUUCGGUGGCGCGAUAGCGUCAACGUCCUCAUCCUCCAAUGCAUCCCAACACAUGAUGAUGCUUGAAGAGCCUUACUUUUUUG [C72U A84U C101A C115U G127A G128C]	-6.94
GACCAAUCUGCCCUCAGAGCUCGAGAACAUCUUCGGAUGCAGAGGAGGCAGGCUUCGGUGGCGCGAUAGCGCCAACGUCCUCAACCUCCAAUACAUCCCACUACAUGAUGAUGCCUGAAGAGCCUUGGUUUUUUG [G93A C102U]	-2.73
GACCAAUCUGCCGUCAGAGCUCGAGAACAUCUUCGGAUGCAGAGGACGCAGGCUUCGGUGGCGCGAUAGCGCCAACGUCCUCAACCUCCAAUGCAUCCCACCACAUGAUGAUGCCUGAAGAGCCUUGGUUUUUUG [C13G G47C]	-3.71
GACCAAUCUGCCCUCAGAGCUCGAGAACAUCUUCGGAUGCAGAGGAGGCAGGCUUCGGUGGCGCGAUAGCGCCAACGUCCUCAACCUCCAAUGCAUCCCACCACAUGAUGAUGCCUGAAGAGGCUUGGAUUUUUG [C123G U129A]	-1.13
GACCAAUCUGCCCUCAGAGCUCGAGAACAUCUUCGGAUGCAGAGGAGGCAGGCUUCGGUGGCGCGAUAGCGCCAACGUCCUCAACCUGCAAUGCAUCCCACCACAUGAUGAUGCCUGAAACGCCUUGGUUUUUUU [C88G G120A A121C G135U]	-0.939
GACCAAUCUGCCCUCAGAGCUCGAGAACAUCUUCGGAUGCAGAGGAGGCAGGCUUCGGUGGCGCGAUAGCGCCAACGCCCUCAAGCUCCAAUGCAUCCCACCACAUGAUGAUGCCUGAAGAGCAUUGGUUUUUUG [U78C C85G C124A]	-0.513
GACCAAUCUGCCCUCAGAGCUCGAGAACAUCUUCGGAUGCAGAGGAAGCAGGCUUCGGUGGCGCGAUAGCGCCAACGUCCUCAACCUCCAAUGCAUCCCACCACAUGAUGAUCCCUGAAGAGCCUUGGUUUUUUG [G47A G113C]	-3.08
GACCAAUCUGCCCUCAGAGCUCGAGAACAUCUUCGGAUGCAUAGGAGGCAGGUUUCGGUGGCGCGAUAGCGCCAACGUCCUCAACCUCCAAUGCAUCCCACCACAUGAUGAUGCCUGAAGAGCCUUGGUUUUUUG [G42U C53U]	-1.85
GACCAAUCUGCCCUCAGAGCUCGAGAACAUCUUCGGAUGCAGCGGAGGCAGGCUUCGGUGGCGCGAUAGCGCCAACGUCCUCAACCUCCAAUGCAUCCCACCACAUGAUGAUGCCUUAAGAGCCUUGGUUUUUUG [A43C G117U]	-5
GACCAAUCUGCGAUCAGAGCUCGAGAACAUCUUCGGAUGCACAGGAGGCAGGCUUCGGUGGCGCGAUAACGCCAACGUCCUCAACCUCCAAUGCAUCCCACCACAUGAUGAUGCCUCUAGAGCCUUGGUUUUUGG [C12G C13A G42C G69A G117C A118U U134G]	-4.53
GACCAAUCUGCCCUCAGAGCUCGAGAACAUCUUCGGAUGCAGAGGAGGCAGGCUUCGGUGGCGCGAUAGCGCCAACGUCCUCAAUCUCCAAUGCAUCCCACCACAUGAUGAUGCCUGAAGAGCCUUGGUAUUUUG [C85U U130A]	-1.86
GACCAAGCUGCUCUAAGAGCUGGAGAACAUCUUCGGAUGCAGAGGAGGCAGGCUUCGGUGGCGCGAUAGCGCCAACGUCCUCAACCUCCAAUGCAUCCCACCAUAUGAUGAUGCCUGAAGAGCCUUGGUUUUUUG [U7G C12U C15A C22G C104U]	-3.41
GACCAAUCUGCCCUCAGAGCUCGAGAACGUCUUCGGAUGCAGCGGAGGCAGGCUUCGGUGGCGCGAUAGCGCCAACGUCCUCAACCUCCAAUGCAUCCCACCACAUGAUGAUGCCUGAAGAGCCUUGGUUUUUUG [A29G A43C]	-3.7
GACCAAUGUGACCUCAGAGCUCGAGAACAUCUUCGGAUGCAGAGGAGGCAGGCUUCGGUGGCGCGAUAGCGCCAACGUCCUCAACCUCCAAUGCAGGCCACCACAUGAUGAUGCCUGAAGAGCCUUGGUUGUUUG [C8G C11A U96G C97G U131G]	-5.45
GACCAAUCUGCCCUCAGAGCUCGAGAACAUCUUCGGAUGCAGAGGAGGCAGGCUUCGCUGGCGCGAUAGCGCAAACGUCCUCAACCUCCAAUGCAUCGCACCACAUGAUGAUGCCUGAAGAGCCUUGGUUUUUUG [G58C C73A C98G]	-6.44

Variant	polymerase ribozyme fitness (log ratio)
GACCAAGCUGCCCUCAGAGCUCGAGAACAUCUUCGGAUGCAGAGGAGGCAGGCUUCGGUGGCCCGAUAGCGCCAACGUCCUCAACCUCCAAUGCAUCCCACCACAUGAUGAUGCCUGAAGAGCCUUGGUUUUUUG [U7G G63C]	-0.0723
GACCAAUCUGCCCUCAGAGCUCGAGAACAUCUUCGGAUGCAUAGGAGGCAGGCUUCGGUGGCGCGAUAGCGGCAACGUCCUCAACCUCCAAUGUAUCCCACCACAUGAUGAUGCCUGAAUAGCCUUGGUUAUUUG [G42U C72G C94U G120U U131A]	-2.67
GACCAAUCUGCCCUCAGAGCUCGAAAACAUGGUCGGAUGUAGAGGAGGCAGGCUUCGGUGGCGCGAUAGCGUCAACGUCCUCAACCUCCAAUGCAUCCCACCACACGUUGAUGCCUGAAGAGCAUUGGUUUUUUG [G25A C31G U32G C40U C72U U106C A108U C124A]	-7.62
GACCAAUCUGCCCUCAGAGCUCGAGAACAUCUUCGGAUGCAGAGGAGGCAUGCUUCGGUGGCGCGAUAGCGCCAACGUCCUCAACCUCCAAUGCAUCCCACCACAUGAUAAUGCCUGAAGAGCCUUGGUUUUUUG [G51U G110A]	-5.3
GACCAAUCUGCCCUCAGAGCUCGCGAACAUCCUCGGAUGCAGAGGAGGCAGGCUUCGGUGGCGCGAUAGCGCAAACGUCCUCAACCUCCAAUGCAGCCCACCACAUGAUGUUGCCUGAAGAGCCUUGGUUUUUUG [A24C U32C C73A U96G A111U]	-7.08
GACCAAUCUGCCCUCAGAGCUCGAGAACAUCUUCGGAUGCAGAGGAGGCAGGCUUCGGUGGCGCGAUAGCUCCAACGUCCUCAACCUCCAUUGCACCCCACCACAUGAUGAUGCCUGAAGAGCCUUGGUUUUUUG [G71U A91U U96C]	-3.7
GACCAAUCUGCCCUCAGAGCUCGAGAACAUCUUCGGAUGCAGAGGAGGCAGGCUUCGGUGGCGUGAUAGCGCCAACGCCCUCAACCUCCAAUGCACCCCACCACAUGAUGAUGCCUGAAGAGCUUCGGUUUUGUG [C64U U78C U96C C124U U126C U133G]	-0.424
GACCAAUCUAUCCUCAGAGCUCGAGAAAAUCUUCGGAUGCAGAGGAGGCAGGCUUCGGUGGCGCGAUAGCGCCAACGUCCUCAACCUCCAAUGCAUCCCACCACAUGAUGAUGCCUGAAGAGCCUUGGUUUUUUG [G10A C11U C28A]	-4.2
GACCAAUUUGCCCUCAGAGCUCGAGAACAUCUUCGGAUGCAGAGGAGGCAGGCUUCGGUGGCGCGAUAGCACCAAAGUCCUCAACCUCCAAUGCAUCCCACCACAUGAUGAUGCCUGAAUAGCCUUGGUUUUUUG [C8U G71A C76A G120U]	-5.96
GACCAUUCUCCACUCAGAGCUCGAGAACAUCUUCGGAUGCAGAGGAGGCAGGCUUCGGUGGCGCGAUAGCGCCAACGUCCUCAACCACCAAUGCAUCCCACCACAUGAUGAUGCCUGAAGAGCCUUGGUUUUUUG [A6U G10C C12A U87A]	-0.928
GACCAAUCUGCCCUCUGAGCUCGAGAACAUCUUCGGAUGCAGAGGAGGCAGGCUUCGGUCGCGCGAUAGCGCCAACGUCCUCAACCUCCAAUGCAUCCCACCACAUGAUGAUGCCUGAAGAGCCUUGGUUUUUUG [A16U G60C]	-2.17
GACCAAUCUGCCCUCAGAGCUCGAGAACAUCUUCGGAUGCAGAGGAGGCAGGCUUCGGUGGCGCGAUAGCGCAAACGUCCUCAACCUCCAAUGCAUCCCAUCACAUGAUUAUGCCUGAAGAGCCUUGGUUUUUUG [C73A C101U G110U]	-1.75
GACCAAUCUGCCCUCAGAGCUCGAGAACAUCUUCGGAUGCAGAGGAGGCAGGCUUCGGUGGCGCGAUAGCGGCAACGUCCUCAACCUCCAAUGCAUCCCACCACAUGGUGAUGCCUGAAAAGCGUUGGUUGUUUG [C72G A108G G120A C124G U131G]	-1.26
GACCAAUCUGCCCUCAGAGCUCGAGAACAUCUUCGGAUGCAGAGGAGGCAGGCUUCGGUGGCGCGAUAGCGCCAACGUCCUCAACCUCCAAUGCAUCCCACCACAAGAUGAUGCCUGAAGAGCCUUGGAUUUUUG [U106A U129A]	-1.17
GACCAAUUUGCCCUCAGAGCUCGAGAACAUUUUCGGAUGCAGAGGAGGCAGGUUUCGGUGGCGCGAUAGCGCCAACGUCCUCAACCUCCAAUGCAUCCCACCACAUGAUGAUGCCUGAAGAGCCUUGGUUUUUUG [C8U C31U C53U]	-4.36
GACCAAUCUGCGCUCAGAGCUCGAGAACAUCUUCGGAUGCAGAGGAGGCAGGCUUCGGUGGCGCGAUAGCGCCAACGUCCUCAACCUCCAAUGCAGCCCACCACAUGAUGAUGCCUUAAGAGCCUUGGUUUUUUG [C12G U96G G117U]	-2.18
GACCAAUCUGCCCUCAGCGCUCGAGAACAUCUUCGGAUGCAGAGGAGGCAGGCUUCGGUGGCGCGAUAGCGCCAACGUCCUCAACCUCCAAUGCAUCCCACCACAUGAUGACGCCUGAAGAGCCUUGGUUUUUUG [A18C U112C]	-0.328
GACCAAUCUGCCCUCAGAGCUCGAGAACAUCUUCGGAUGCAGAGGAGGCAGGCUUCGGUGGCGCGAUAGCGCCAACGUCCUCAAUCUCCAAUGCAUCCCUCCACAUGAUGAUGCCUGAAGAGCCUUGGUUUUUUG [C85U A100U]	-1.79
GACCAAUCUGCCCUCAGAGCUCGAGAACAUCUUCGGAUGCAGAGUAGGCAGGCUUCGGUGGCGCGAUAGCGCAAACGUCCUCAACCUCCAAUGCUUCCCACCACAUGAUGAUGCCUGAAGAGCCUUGGUUUUUUG [G45U C73A A95U]	-1.21
GACCAAUCUGCCCUCAGAGCUCGAGAACAUCUUCGGAUGCAGAGGAGGCAGACUACGGUGGCGCGAUAGCGCCUACGUCCUCAACCUCCAAUGCAUCCCACCACAUGAUGAUGCCUGAACAGAUUUGGUUUUUUA [G52A U55A A74U G120C C123A C124U G135A]	-0.0228
GACCAAUCUGCCCUCAGAGCUCGAGAACAUCUUCGGAUGCAGAGGAGUCAGGUUUCGGUGGCGCGAUAGCGCCAACGUCCUCAACCUCCAAUCCAUCCCACCACAUGAUGAUGCCUGAAGAGCCUUGGUUUUUUG [G48U C53U G93C]	-1.66
